Test results reported in US20080200416A1.

How the values were obtained:
[1] = target: antagonist MCC 99R I-E^k complex (mouse) (UniProt P04224); assay: cell-based or functional assay
[2] = target: agonist MCC I-E^k complex (mouse) (UniProt G3UW40); assay: cell-based or functional assay

Sequence of antagonist MCC 99R I-E^k complex (mouse) (P04224 26-216, one chain of several): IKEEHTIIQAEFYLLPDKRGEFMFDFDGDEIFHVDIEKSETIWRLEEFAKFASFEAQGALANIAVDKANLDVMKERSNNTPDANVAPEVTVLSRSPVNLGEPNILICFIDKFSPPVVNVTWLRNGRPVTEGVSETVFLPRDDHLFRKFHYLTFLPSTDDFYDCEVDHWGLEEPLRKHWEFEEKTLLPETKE

peak cytosolic calcium response, miR-181a T cell blasts [1]: > 2 fold
half-maximal calcium response (EC50), control T cell blasts [2]: 5 peptides
half-maximal calcium response (EC50), miR-181a T cell blasts [2]: 2 peptides
Substance: 5C.C7 TCR
